According to patent US20240383993A1 (LANOVA MEDICINES, published 2024):

T1: His-tagged cynomolgus 4-1BB protein (cynomolgus, UniProt A9YYE7 24-186)
T1 construct: Coated on ELISA plates at 2 µg/ml; also called Cyno 4-1BB; soluble cynomolgus 4-1BB; not shown: His tag
T1 sequence: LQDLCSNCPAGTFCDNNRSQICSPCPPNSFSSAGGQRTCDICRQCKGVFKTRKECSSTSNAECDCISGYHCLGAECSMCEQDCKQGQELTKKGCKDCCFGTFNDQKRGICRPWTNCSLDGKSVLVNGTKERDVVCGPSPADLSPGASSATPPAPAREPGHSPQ


Columns and labels:
[1] = target: T2, human 4-1BB expressed on cells (human, UniProt Q07011 24-255); experiment: cell-based or functional assay
T2 sequence (Q07011 24-255): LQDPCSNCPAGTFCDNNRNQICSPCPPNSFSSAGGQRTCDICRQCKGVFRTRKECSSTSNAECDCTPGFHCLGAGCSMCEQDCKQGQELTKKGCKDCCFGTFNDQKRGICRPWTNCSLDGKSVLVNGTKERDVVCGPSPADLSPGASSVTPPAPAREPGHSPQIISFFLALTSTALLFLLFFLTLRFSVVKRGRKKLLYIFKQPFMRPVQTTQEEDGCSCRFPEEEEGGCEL

[2] = target: T3, His-tagged human 4-1BB protein (human, UniProt Q07011 24-186); experiment: ELISA, coated His-tagged 4-1BB, anti-human IgG-HRP
T3 construct: Coated on ELISA plates at 2 µg/ml; also called hu4-1BB; soluble human 4-1BB; not shown: His tag
Procedure: (§1) His-tagged 4-1BB was coated at 2 μg/ml overnight and then blocked by 2% BSA in PBS. Serially diluted anti-4-1BB nanobodies were incubated with the coated antigen for 1h at room temperature with a reference antibody “Ref mAb”. The resulting plates were washed with PBS/T and incubated with goat anti-human IgG-HRP for 1 h at room temperature. The plates were developed with TMB substrate and analyzed by spectrophotometer at OD 450 nm.

[3] = target: T1, His-tagged cynomolgus 4-1BB protein; experiment: ELISA, coated His-tagged 4-1BB, anti-human IgG-HRP
Procedure: as §1

[4] = target: T2, human 4-1BB expressed on cells; experiment: flow cytometry competition with biotinylated human 4-1BB ligand on CHO-K1/human 4-1BB cells
Procedure: CHO-K1 cells overexpressing human 4-1BB were incubated with biotinylated human 4-1BB ligand (0.3 μg/ml) in the presence of serial diluted anti-41BB nanobodies for 1 h at 4° C. with Ref mAb as the reference antibody. Then, cells were incubated with Alexa Fluor 633-conjugated streptavidin. Binding was measured with an Agilent flow cytometer. As shown in FIG. 2 and Table 3, all of the tested nanobodies could block 4-1BB ligand binding to 4-1BB in a concentration-dependent manner while Ref mAb had no such effect.

[5] = target: T2, human 4-1BB expressed on cells; experiment: flow cytometry on CHO-K1/hu4-1BB cells, anti-human Fc-Alexa Fluor 633
Procedure: (§2) To evaluate the antigen binding property in a cell-based setting, the 4-1BB humanized nanobodies were analyzed for their binding to 4-1BB overexpressed on CHO-K1 cells by FACS.
(§3) Briefly, CHO-K1 cells overexpressing human 4-1BB or cynomolgus 4-1BB were incubated with the serial diluted anti-4-1BB nanobodies for 30 min at 4° C. Then, the cells were incubated with Alexa Fluor 633-conjugated anti-human Fc secondary antibody. Binding was measured with an Agilent flow cytometer.

[6] = target: T4, cynomolgus 4-1BB overexpressed on CHO-K1 cells (cynomolgus, UniProt A9YYE7 24-254); experiment: flow cytometry on CHO-K1/Cyno-41BB cells, anti-human Fc-Alexa Fluor 633
T4 construct: whole, on cells; also called CHO-K1/Cyno-41BB; cell surface cyno 4-1BB
T4 sequence (A9YYE7 entry or part of it): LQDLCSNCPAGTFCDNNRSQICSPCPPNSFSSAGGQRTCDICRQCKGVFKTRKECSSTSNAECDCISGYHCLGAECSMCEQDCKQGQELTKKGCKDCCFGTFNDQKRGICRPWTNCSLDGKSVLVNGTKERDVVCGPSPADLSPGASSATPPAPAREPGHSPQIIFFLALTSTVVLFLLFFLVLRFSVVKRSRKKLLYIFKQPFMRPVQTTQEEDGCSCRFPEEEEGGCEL
Procedure: as §2, §3

Binder | EC50 (nM) in Jurkat-41BB NFκB reporter assay [1] [nM] | EC50 [2] [nM] | EC50 [3] [nM] | IC50 [4] [nM] | EC50 [5] [nM] | Max (MFI) [5] [MFI] | EC50 [6] [nM] | Max (MFI) [6] [MFI]
VV02-1LP-317 (Fc fusion, not shown: a dimerising Fc or GST; small tags and cut ends, Llama nanobody tested as fusion with human IgG1 Fc (N297A)) VHH: EVDLVESGGGLVQPGGSLRLSCAASGFTFSRSAMSWARQAPGKGFEWVSGIYSGGSTYYVDSVEGRFTISRDNAKNTVYLQMNSLKPEDTAVYYCATWGSQQIGVWHEDDYWGQGTQVTVSS | 0.031 | > 30 | 29.3 | 1.42 |  |  |  | 
VV02-2LP-13 (Fc fusion, Llama nanobody tested as fusion with human IgG1 Fc (N297A); not shown: Human IgG1 Fc fragment with N297A, plus the hinge or linker joining it to the nanobody) VHH: AVQLVESGGGLVQPGGSLRLSCAASGFTFSSYAMSWARQVPGKGFEWVAYIYSDGSTYYADSVKGRFTISRDNAKDTVYLHMNSLKFEDMAVYYCATWRSQQVGRWDEYDHWGQGTQVTVSS | 0.036 | > 30 | 4.19 | 0.995 |  |  |  | 
VV02-1SP (1)-55 (Fc fusion, not shown: a dimerising Fc or GST; small tags and cut ends, Llama nanobody tested as fusion with human IgG1 Fc (N297A)) VHH: EVQLVESGGGLVQPGGSLRLSCAASGFTFSSSAMSWARQVPGKGFEWVAYIYSDGSTYYADSVKGRFTISRDNAKDTVYLHMNSLKFEDMAVYYCATWRSQQVGRWDEYDYWGQGIQVTVSS | 0.023 | > 30 | 1.87 | 0.573 |  |  |  | 
VV02-1SP (1)-358 (Fc fusion, not shown: a dimerising Fc or GST; small tags and cut ends, Llama nanobody tested as fusion with human IgG1 Fc (N297A)) VHH: EVQLVESGGGLVQPGGSLMISCAASGFTFSSSAMSWARQVPGKGFEWVAYIYSDGSTYYADSVKGRFTISRDNAKDTVYLHMNSLKFEDMAVYYCATWRSQQVGRWDKYDYWGQGTQVTVSS | 0.004 | > 30 | 0.11 | 0.988 |  |  |  | 
VV02-3LP-83 (Fc fusion, Llama nanobody tested as fusion with human IgG1 Fc (N297A); not shown: Human IgG1 Fc fragment with N297A, plus the hinge or linker joining it to the nanobody) VHH: EVDLVESGGGLVQPGGSLRLSCAASGFTFRSYAMSWARQVPGKGFEWVAYIYSDGSTYYADSVKGRFTISRDNAKDTVYLHMNSLKFEDMAVYYCATWRSQQVGRWDEYDHWGQGTQVTVSS | 0.014 | > 30 | 2.03 | 0.682 |  |  |  | 
VV02-3LP-142 (Fc fusion, Llama nanobody tested as fusion with human IgG1 Fc (N297A); not shown: Human IgG1 Fc fragment with N297A, plus the hinge or linker joining it to the nanobody) VHH: AVQLVESGGGLVQRGGSLKLSCVGSGFDFSDHAMSWARQVPGKGFEWVAYIYSDGSTYYADSVKGRFTISRDNAKDTVYLHMNSLKFEDMAVYYCATWRSQQVGRWDEYDHWGQGTQVTVSS | 0.014 | > 30 | 18.2 | 0.923 |  |  |  | 
VV02-1SP (1)-73 (Fc fusion, not shown: a dimerising Fc or GST; small tags and cut ends, Llama nanobody tested as fusion with human IgG1 Fc (N297A)) VHH: EVDLVESGGGLVQPGGSLRLSCAVSGFTFSNSAMSWARQAPGKEFEWVSSIYSDGKTYYVDSVKGRFTISRDNAKNTVYLQMSSLKPEDTAVYYCATWKTLRVGVWDESDYWGQGTQVTVSS | 0.01 | > 30 | 0.11 | 0.573 |  |  |  | 
VV02-1SP (1)-73 huNb_1_2 (Fc fusion, detection by anti-human Fc; not shown: Fc part, implied only by the anti-human Fc secondary antibody) VHH: EVQLLESGGGLVQPGGSLRLSCAASGFTFSSSAMSWARQAPGKELEWVSSIYSSGKTYYVESVKGRFTISRDNAKNTLYLQMSSLRAEDTAVYYCATWKTLRVGVWDESDYWGQGTLVTVSS |  |  |  |  | 0.8 | 5240 |  | 
VV02-1SP (1)-73 huNb_1_3 (Fc fusion, detection by anti-human Fc; not shown: Fc part, implied only by the anti-human Fc secondary antibody) VHH: EVDLVESGGGLVQPGGSLRLSCAVSGFTFSSSAMSWARQAPGKEFEWVSSIYSSGKTYYVESVKGRFTISRDNAKNTVYLQMSSLRPEDTAVYYCATWKTLRVGVWDESDYWGQGTLVTVSS |  |  |  |  | 0.61 |  |  | 
VV02-1SP (1)-73 huNb_2_2 (Fc fusion, detection by anti-human Fc; not shown: Fc part, implied only by the anti-human Fc secondary antibody) VHH: EVQLVESGGGLIQPGGSLRLSCAASGFTFSSSAMSWARQAPGKEFEWVSSIYSSGKTYYVESVKGRFTISRDNAKNTLYLQMSSLRAEDTAVYYCATWKTLRVGVWDESDYWGQGTQVTVSS |  |  |  |  | 0.37 | 9270 |  | 
VV02-1SP (1)-73 huNb_2_3 (Fc fusion, detection by anti-human Fc; not shown: Fc part, implied only by the anti-human Fc secondary antibody) VHH: EVQLVESGGGLVQPGGSLRLSCAVSGFTFSSSAMSWARQAPGKEFEWVSSIYSSGKTYYVESVKGRFTISRDNAKNTVYLQMSSLRPEDTAVYYCATWKTLRVGVWDESDYWGQGTQVTVSS |  |  |  |  | 0.49 |  |  | 
VV02-1SP (1)-73 huNb_3_2 (Fc fusion, detection by anti-human Fc; not shown: Human Fc part, implied only by the anti-human Fc secondary antibody) VHH: EVQLVESGGGLVQPGGSLRLSCAASGFTFSSSAMSWARQAPGKGFEWVSSIYSSGKTYYVESVKGRFTISRDNAKNSLYLQMSSLRAEDTAVYYCATWKTLRVGVWDESDYWGQGTLVTVSS |  |  |  |  | 0.52 | 8560 |  | 
VV02-1SP (1)-73 huNb_3_3 (Fc fusion, detection by anti-human Fc; not shown: Human Fc part, implied only by the anti-human Fc secondary antibody) VHH: EVQLVESGGGLVQPGGSLRLSCAVSGFTFSSSAMSWARQAPGKEFEWVSSIYSSGKTYYVESVKGRFTISRDNAKNSVYLQMSSLRPEDTAVYYCATWKTLRVGVWDESDYWGQGTLVTVSS |  |  |  |  | 0.66 | 9630 |  | 
VV02-1LP-417 (Fc fusion, Llama nanobody tested as fusion with human IgG1 Fc (N297A); not shown: Human IgG1 Fc fragment with N297A, plus the hinge or linker joining it to the nanobody) VHH: QLQLVESGGGLVQPGGSLRLSCAASGFALDYSAIGWFRQAPGKEREGVLCISSSGDVTIYADSVKGRFTISRDNAKNTVYLQMNSLKPEDTAVYYCVAPRICSTYSSDDYWGQGTQVTVSS | 0.081 | 11.1 |  | 2.05 |  |  |  | 
VV02-1LP-288 (Fc fusion, not shown: a dimerising Fc or GST; small tags and cut ends, Llama nanobody tested as fusion with human IgG1 Fc (N297A)) VHH: EVQVVESGGGLVQPGGSLRLSCAASGSSLDYSAIGWFRQAPGKEREGVLCISSSGDVTIYADSVKGRFTISRDNAKNTVYLQMNSLKPEDTAVYYCVAPRICSTYSSDDYWGQGTQVTVSS | 0.052 | > 30 |  | 2.57 |  |  |  | 
VV02-1LP-263 huNb_2_3 (Fc fusion, not shown: a dimerising Fc or GST, detection by anti-human Fc) VHH: EVQLVESGGGLVQPGGSLRLSCAASGFTFSSSAMSWARQAPGKGFEWVSGIYSGGSTYYTESVKDRFTISRDNAKNTVYLQMNSLKPEDTAVYYCATWGTLRFGVWAEYDHWGQGTLVTVSS |  |  |  |  | 0.11 | 39100 | 0.37 | 130000
VV02-1LP-263 huNb_1_2 (Fc fusion, not shown: a dimerising Fc or GST, detection by anti-human Fc) VHH: EVQLLESGGGLVQPGGSLRLSCAASGFTFSSSAMSWARQAPGKGLEWVSGIYSGGSTYYTESVKDRFTISRDNSKNTVYLQMNSLKPEDTAVYYCATWGTLRFGVWAEYDHWGQGTLVTVSS |  |  |  |  | 0.17 | 23500 | 0.69 | 99600
VV02-1LP-263 huNb_1_3 (Fc fusion, not shown: a dimerising Fc or GST, detection by anti-human Fc) VHH: EVQLLESGGGLVQPGGSLRLSCAASGFTFSSSAMSWARQTPGKGFEWVSGIYSGGSTYYTESVKDRFTISRDNSKNTVYLQMNSLKPEDTAVYYCATWGTLRFGVWAEYDHWGQGTQVTVSS |  |  |  |  | 0.11 | 42100 | 0.33 | 134000
VV02-1LP-263 huNb_2_2 (Fc fusion, not shown: a dimerising Fc or GST, detection by anti-human Fc) VHH: EVQLVESGGGLVQPGGSLRLSCAASGFTFSSSAMSWARQAPGKGLEWVSGIYSGGSTYYTESVKDRFTISRDNAKNTLYLQMNSLRPEDTAVYYCATWGTLRFGVWAEYDHWGQGTLVTVSS |  |  |  |  | 0.19 | 23400 | 0.64 | 86400
VV02-1LP-263 huNb_3_2 (Fc fusion, not shown: a dimerising Fc or GST, detection by anti-human Fc) VHH: QVQLVESGGGLVKPGGSLRLSCAASGFTFSSSAMSWARQAPGKGFEWVSGIYSGGSTYYTESVKDRFTISRDNAKNSLYLQMNSLRPEDTAVYYCATWGTLRFGVWAEYDHWGQGTQVTVSS |  |  |  |  | 0.14 | 38000 | 0.7 | 128000
VV02-1LP-263 huNb_3_3 (Fc fusion, detection by anti-human Fc; not shown: Fc part, implied only by the anti-human Fc secondary antibody) VHH: QVQLVESGGGLVQPGGSLRLSCAASGFTFSSSAMSWARQAPGKGFEWVSGIYSGGSTYYTESVKDRFTISRDNAKNSVYLQMNSLKPEDTAVYYCATWGTLRFGVWAEYDHWGQGTQVTVSS |  |  |  |  | 0.12 | 40300 | 0.7 | 149000
VV02-1SP (1)-73 huNb_3_1 (Fc fusion, detection by anti-human Fc; not shown: Fc part, implied only by the anti-human Fc secondary antibody) VHH: EVQLVESGGGLVQPGGSLRLSCAASGFTFSSSAMSWARQAPGKGFEWVASIYSSGKTYYVESVKGRFTISRDNAKNSLYLQMNSLRAEDTAVYYCARWKTLRVGVWDESDYWGQGTLVTVSS |  |  |  |  | 27.4 | 3700 |  | 
